The target in this assay is T1, MBP (UniProt P0AEX9 27-392 = MBP).
T1 construct: Control without pilin
Kind of assay: co-precipitation of CD147-Fc with MBP immobilised on staphylococci, immunoblot.

B1: recombinant human CD147-Fc chimera (Fc fusion)
chain: THGASGAAGTVFTTVEDLGSKILLTCSLNDSATEVTGHRWLKGGVVLKEDALPGQKTEFKVDSDDQWGEYSCVFLPEPMGTANIQLHGPPRVKAVKSSEHINEGETAMLVCKSESVPPVTDWAWYKITDSEDKALMNGSESRFFVSSSQGRSELHIENLNMEADPGQYRCNGTSSKGSDQAIITLRVRSH
notes: Bought from R&D Systems; comprises the Ig domains of CD147 fused to the Fc domain of human IgG1, produced as a disulfide-linked homodimer; also called soluble chimeric CD147-Fc; recombinant soluble form of the extracellular domain of CD147; not shown: Fc domain of human IgG1
On to B1, for which the binding result is recorded as “no binding (tested: 1 µg of recombinant human CD147-Fc)”.

These data come from patent publication US20150110806A1 (INSTITUT NATIONAL DE LA SANTE ET DE LA RECHERCHE MEDICALE, published 2015).
